From patent US20100197768A1 (UNIVERSITY OF ROCHESTER, published 2010)

B1: N1/2 (CD1-NCD1, a.a. 1-208 of hA3G) (other, human, UniProt Q9HC16 1-208, looked up)
chain: MKPHFRNTVERMYRDTFSYNFYNRPILSRRNTVWLCYEVKTKGPSRPPLDAKIFRGQVYSELKYHPEMRFFHWFSKWRKLHRDQEYEVTWYISWSPCTKCTRDMATFLAEDPKVTLTIFVARLYYFWDPDYQEALRSLCQKRDGPRATMKIMNYDEFQHCWSKFVYSQRELFEPWNNLPKYYILLHIMLGEILRHSMDPPTFTFNFNN
notes: range 1-208; Expressed in 293T cells; tested in RNase A treated cell extracts; also called N-terminal half of hA3G; not shown: N-terminal tag HA, V5, EGFP-HA or EGFP-V5, differing by experiment
B2: CD2 (catalytic domain 2, a.a. 209-336 of hA3G) (other, human, UniProt Q9HC16 209-336, looked up)
chain: EPWVRGRHETYLCYEVERMHNDTWVLLNQRRGFLCNQAPHKHGFLEGRHAELCFLDVIPFWKLDLDQDYRVTCFTSWSPCFSCAQEMAKFISKNKHVSLCIFTARIYDDQGRCQEGLRTLAEAGAKIS
notes: also called C-terminal catalytic domain; not shown: N-terminal tag HA, V5, EGFP-HA or EGFP-V5, differing by experiment
B3: NCD2 (non-catalytic domain 2, a.a. 337-384 of hA3G) (other, human, UniProt Q9HC16 337-384, looked up)
chain: IMTYSEFKHCWDTFVDHQGCPFQPWDGLDEHSQDLSGRLRAILQNQEN
notes: range 337-384; not shown: N-terminal tag HA, V5, EGFP-HA or EGFP-V5, differing by experiment
B4: NCD1 (non-catalytic domain 1, a.a. 144-208 of hA3G) (other, human, UniProt Q9HC16 144-208, looked up)
chain: GPRATMKIMNYDEFQHCWSKFVYSQRELFEPWNNLPKYYILLHIMLGEILRHSMDPPTFTFNFNN
notes: range 144-208; not shown: N-terminal tag HA, V5, EGFP-HA or EGFP-V5, differing by experiment
B5: CD1 (catalytic domain 1, a.a. 1-143 of hA3G) (other, human, UniProt Q9HC16 1-143, looked up, not shown: small tags and cut ends)
chain: MKPHFRNTVERMYRDTFSYNFYNRPILSRRNTVWLCYEVKTKGPSRPPLDAKIFRGQVYSELKYHPEMRFFHWFSKWRKLHRDQEYEVTWYISWSPCTKCTRDMATFLAEDPKVTLTIFVARLYYFWDPDYQEALRSLCQKRD
notes: range 1-143; also called N-terminal catalytic domain
B6: C1/2 (CD2-NCD2, a.a. 209-384 of hA3G) (other, human, UniProt Q9HC16 209-384, looked up)
chain: EPWVRGRHETYLCYEVERMHNDTWVLLNQRRGFLCNQAPHKHGFLEGRHAELCFLDVIPFWKLDLDQDYRVTCFTSWSPCFSCAQEMAKFISKNKHVSLCIFTARIYDDQGRCQEGLRTLAEAGAKISIMTYSEFKHCWDTFVDHQGCPFQPWDGLDEHSQDLSGRLRAILQNQEN
notes: Self co-IP was done with and without EGFP (±EGFP); also called C-terminal half of hA3G; not shown: N-terminal tag HA, V5, EGFP-HA or EGFP-V5, differing by experiment
B7: C3/4 (larger C-terminal domain lacking only CD1, a.a. 144-384 of hA3G) (other, human, UniProt Q9HC16 144-384, looked up)
chain: GPRATMKIMNYDEFQHCWSKFVYSQRELFEPWNNLPKYYILLHIMLGEILRHSMDPPTFTFNFNNEPWVRGRHETYLCYEVERMHNDTWVLLNQRRGFLCNQAPHKHGFLEGRHAELCFLDVIPFWKLDLDQDYRVTCFTSWSPCFSCAQEMAKFISKNKHVSLCIFTARIYDDQGRCQEGLRTLAEAGAKISIMTYSEFKHCWDTFVDHQGCPFQPWDGLDEHSQDLSGRLRAILQNQEN
notes: range 144-384; not shown: N-terminal tag HA, V5, EGFP-HA or EGFP-V5, differing by experiment

What was measured:
[1] = target: T1, Protein A (agarose beads, no antibody) (UniProt P38507 37-477); experiment: IP with Protein A beads alone
T1 construct: Bead-only control of the immunoprecipitations; also called Protein A beads
Experimental: (§1) Twenty-four hours after transfection the cells were harvested and cell extracts were analyzed by co-immunoprecipitation (co-IP). Extracts were treated with RNase A prior to IP to eliminate interactions that were due to RNA bridging.
(§2) Co-immunoprecipitation analysis. […] 24 hours after transfection cell extracts were harvested in NP-40 lysis buffer (50 mM Tris pH 7.4, 150 mM NaCl, 0.1% NP-40) with Complete® Mini EDTA free protease inhibitors (Roche). Cell extracts were treated with 40 μg/mL of RNase A for 1 hour at 37° C. and subsequently pre-cleared with Protein A agarose beads (Roche) tumbling for 1 hour at 4° C. The pre-cleared extracts were split and added to a Protein A bead slurry±V5 (Invitrogen) or GFP antibody (Clontech) for immunoprecipitation by tumbling overnight at 4° C. The beads were washed 3 times with NP-40 lysis buffer and eluted 3 times with 1×Treat (50 mM Tris pH 7.4, 10 mM DTT, 0.1% SDS).

[2] = target: the molecule itself; experiment: co-IP of HA and V5 tagged forms, V5 IP, HA western
Experimental: as §1, §2

[3] = target: B5; experiment: co-IP of HA and V5 tagged domains, V5 IP, HA western
Experimental: as §1, §2

[4] = target: T2, HIV-1 p55 Gag polyprotein (HIV-1, UniProt P12493 2-500); experiment: V5 IP of hA3G domain, p24 western for Gag, RNase A treated 293T extracts
T2 construct: Expressed in 293T cells co-transfected with HIV-1 DNA; detected with a p24 antibody
Experimental: Co-IP experiments were performed using various hA3G domains and Gag or Vif following RNase A digestion of cell extracts.
as §2

[5] = target: the molecule itself; experiment: summary of the co-IP results of Example 2
Experimental: as §1, §2

[6] = target: B4; experiment: co-IP of HA and V5 tagged domains, V5 IP, HA western
Experimental: as §1, §2

[7] = target: B1; experiment: as above
Experimental: as §1, §2

[8] = target: the molecule itself; experiment: co-IP of HA and V5 tagged forms, V5 IP, HA western, RNase A treated 293T extracts
Experimental: as §1, §2

EGFP-HA tagged Vif = target: T3, EGFP-HA tagged Vif (HIV-1, UniProt P12504 1-192); experiment: GFP antibody IP of EGFP-HA-Vif, western for the hA3G domain, RNase A treated 293T extracts
T3 construct: Expressed in 293T cells from pIRES-P; also called EGFP-HA-Vif; HIV-1 Vif; not shown: N-terminal EGFP-HA tag
T3 sequence (P12504 whole entry, the tested form may be a part): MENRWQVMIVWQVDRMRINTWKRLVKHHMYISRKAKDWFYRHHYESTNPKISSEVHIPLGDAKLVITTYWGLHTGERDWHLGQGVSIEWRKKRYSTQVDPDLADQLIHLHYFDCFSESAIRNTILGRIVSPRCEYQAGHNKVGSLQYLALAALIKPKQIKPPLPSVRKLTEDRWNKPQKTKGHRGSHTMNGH

Row | Binder | binding result [1] | binding result [2] | binding result [4] | further results
1 | B1 | no binding | no binding | – | –
2 | B2 | no binding | – | no binding | binding result [3]: no binding; binding result [5]: binds
3 | B3 | no binding | no binding | – | binding result [6]: no binding
4 | B4 | no binding | no binding | – | –
5 | B5 | no binding | no binding | no binding | –
6 | B6 | no binding | – | no binding | binding result [7]: no binding; binding result [8]: binds; binding result (EGFP-HA tagged Vif): no binding
7 | B7 | no binding | – | – | binding result [8]: binds
